# Test results: patent US20180155451A1 (published 2018)
# T1: FcγRIIb extracellular domain with C-terminal His tag (human, UniProt P31994 43-217)
# T1 construct: extracellular domain; Soluble receptor expressed in FreeStyle293 cells; analyte in Biacore; also called FcgRIIb; 2b; not shown: His tag at the C terminus
# T1 sequence (looked up): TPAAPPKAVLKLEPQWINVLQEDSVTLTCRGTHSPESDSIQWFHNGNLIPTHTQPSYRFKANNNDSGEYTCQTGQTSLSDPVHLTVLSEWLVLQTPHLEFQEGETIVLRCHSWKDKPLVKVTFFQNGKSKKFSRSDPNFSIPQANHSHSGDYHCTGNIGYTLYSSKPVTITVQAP
# T2: FcγRIIb, extracellular domain with C-terminal His tag (human, UniProt P31994 43-217)
# T2 construct: extracellular domain; Expressed in FreeStyle293 cells; analyte in the Biacore assay; also called FcgRIIb; 2b; not shown: His tag at the C terminus
# T2 sequence (looked up): T1 sequence (looked up)
# T3: FcγRIIa H (FcγRIIa type H, His at position 131), extracellular domain with C-terminal His tag (human, UniProt P12318 34-217)
# T3 construct: extracellular domain; Expressed in FreeStyle293 cells; analyte in the Biacore assay; also called FcgRIIa H; 2aH; not shown: His tag at the C terminus
# T3 sequence (looked up): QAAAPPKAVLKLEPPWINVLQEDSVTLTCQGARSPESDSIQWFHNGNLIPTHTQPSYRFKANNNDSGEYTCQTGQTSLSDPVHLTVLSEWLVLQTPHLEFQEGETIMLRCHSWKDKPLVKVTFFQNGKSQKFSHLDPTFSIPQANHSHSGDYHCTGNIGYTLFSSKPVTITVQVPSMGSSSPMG
# B1: GpH7-A5/GpH7-B3 variant P329_16H/GpL16-k0 (antibody, human IgG1, kappa)
# heavy 1: not shown
# heavy 2: not shown
# light: DIVMTQSPLSLPVTPGEPASISCQASESLVHSNRNTYLHWYLQKPGQSPQLLIYKVSNRFSGVPDRFSGSGSGTDFTLKISRVEAEDVGVYYCSQNTHVPPTFGQGTKVEIERTVAAPSVFIFPPSDEQLKSGTASVVCLLNNFYPREAKVQWKVDNALQSGNSQESVTEQDSKDSTYSLSSTLTLSKADYEKHKVYACEVTHQGLSSPVTKSFNRGEC
# notes: He Ab: heterodimerized anti-glypican-3 IgG1, substitution in one H chain only; also called He Ab P329H
# B2: GpH7-A5/GpH7-B3 variant T335_11K/GpL16-k0 (antibody, human IgG1, kappa)
# heavy 1: not shown
# heavy 2: not shown
# light: B1 light
# notes: He Ab: heterodimerized anti-glypican-3 IgG1, substitution in one H chain only; also called He Ab T335K
# B3: GpH7-A5/GpH7-B3 variant T335_12R/GpL16-k0 (antibody, human IgG1, kappa)
# heavy 1: not shown
# heavy 2: not shown
# light: B1 light
# notes: He Ab: heterodimerized anti-glypican-3 IgG1, substitution in one H chain only; also called He Ab T335R
# B4: GpH7-A5/GpH7-B3 variant P329_20W/GpL16-k0 (antibody, human IgG1, kappa)
# heavy 1: not shown
# heavy 2: not shown
# light: B1 light
# notes: He Ab: heterodimerized anti-glypican-3 IgG1, substitution in one H chain only; also called He Ab P329W
# B5: GpH7-A5/GpH7-B3 variant P329_18N/GpL16-k0 (antibody, human IgG1, kappa)
# heavy 1: not shown
# heavy 2: not shown
# light: B1 light
# notes: He Ab: heterodimerized anti-glypican-3 IgG1, substitution in one H chain only; also called He Ab P329N
# B6: GpH7-A5/GpH7-B3 variant P329_19Q/GpL16-k0 (antibody, human IgG1, kappa)
# heavy 1: not shown
# heavy 2: not shown
# light: B1 light
# notes: He Ab: heterodimerized anti-glypican-3 IgG1, substitution in one H chain only; also called He Ab P329Q
# B7: GpH7-A5/GpH7-B3 variant P331_01G/GpL16-k0 (antibody, human IgG1, kappa)
# heavy 1: not shown
# heavy 2: not shown
# light: B1 light
# notes: He Ab: heterodimerized anti-glypican-3 IgG1, substitution in one H chain only; also called He Ab P331G
# B8: GpH7-A5/GpH7-B3 variant P329_01G/GpL16-k0 (antibody, human IgG1, kappa)
# heavy 1: not shown
# heavy 2: not shown
# light: B1 light
# notes: He Ab; IgG1; mutation in one H chain only; also called He Ab
# B9: GpH7-A5/GpH7-B3 variant A327_19Q/GpL16-k0 (antibody, human IgG1, kappa)
# heavy 1: not shown
# heavy 2: not shown
# light: B1 light
# notes: as for B8
# B10: GpH7-A5/GpH7-B3 variant A327_04F/GpL16-k0 (antibody, human IgG1, kappa)
# heavy 1: not shown
# heavy 2: not shown
# light: B1 light
# notes: as for B8
# B11: GpH7-A5/GpH7-B3 variant A330_12R/GpL16-k0 (antibody, human IgG1, kappa)
# heavy 1: not shown
# heavy 2: not shown
# light: B1 light
# notes: as for B8
# B12: GpH7-A5/GpH7-B3 variant A330_13S/GpL16-k0 (antibody, human IgG1, kappa)
# heavy 1: not shown
# heavy 2: not shown
# light: B1 light
# notes: as for B8
# B13: GpH7-A5/GpH7-B3 variant A330_08L/GpL16-k0 (antibody, human IgG1, kappa)
# heavy 1: not shown
# heavy 2: not shown
# light: B1 light
# notes: as for B8
# B14: GpH7-A5/GpH7-B3 variant A330_03V/GpL16-k0 (antibody, human IgG1, kappa)
# heavy 1: not shown
# heavy 2: not shown
# light: B1 light
# notes: as for B8
# B15: GpH7-A5/GpH7-B3 variant A327_06M/GpL16-k0 (antibody, human IgG1, kappa)
# heavy 1: not shown
# heavy 2: not shown
# light: B1 light
# notes: as for B8
# B16: GpH7-A5/GpH7-B3 variant A330_14T/GpL16-k0 (antibody, human IgG1, kappa)
# heavy 1: not shown
# heavy 2: not shown
# light: B1 light
# notes: as for B8
# B17: GpH7-A5/GpH7-B3 variant A330_07I/GpL16-k0 (antibody, human IgG1, kappa)
# heavy 1: not shown
# heavy 2: not shown
# light: B1 light
# notes: as for B8
# Molecular target: T4, FcγRIa extracellular domain with C-terminal His tag (human, UniProt P12314 16-292)
# T4 construct: extracellular domain; Soluble receptor expressed in FreeStyle293 cells; analyte in Biacore; also called FcgRI; FcgRIa; not shown: His tag at the C terminus
# Assay: SPR (Biacore); He/Con_1a divided by He/Con_2b (FcγRIIb)
# How it was run: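 Interaction analysis: He antibodies immobilized indirectly through captured antigen peptide (CM5 amine-coupled or SA-biotin), FcγR analytes flowed in running buffer at 25 °C, glycine-HCl pH 1.5 regeneration.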
# T4 sequence (P12314 16-292): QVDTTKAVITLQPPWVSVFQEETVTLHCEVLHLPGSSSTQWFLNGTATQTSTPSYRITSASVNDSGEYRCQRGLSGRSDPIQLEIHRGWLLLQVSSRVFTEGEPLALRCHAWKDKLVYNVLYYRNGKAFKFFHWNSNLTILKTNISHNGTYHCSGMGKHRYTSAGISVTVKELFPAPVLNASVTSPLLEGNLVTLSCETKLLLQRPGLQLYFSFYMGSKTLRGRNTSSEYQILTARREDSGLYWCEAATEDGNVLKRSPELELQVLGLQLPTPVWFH
row,He_1a/2b (Ia/IIb),Binder
1,2.45,B1
2,1.22,B2
3,1.23,B3
4,2.15,B4
5,2.29,B5
6,2.31,B6
7,1.88,B7

# Molecular target: T4, FcγRIa extracellular domain with …
# Assay: SPR (Biacore), antibody captured on antigen peptide chip, FcγR as analyte; binding relative to GpH7-A5/GpH7-B3/GpL16-k0 = 100
row,He/Con_1a (Ia binding),Binder
1,95.6 % of control (control = 100),B1
2,111 % of control (control = 100),B2
3,113 % of control (control = 100),B3
4,96.9 % of control (control = 100),B4
5,92.4 % of control (control = 100),B5
6,70.7 % of control (control = 100),B6
7,85.3 % of control (control = 100),B7

# Molecular target: T1, FcγRIIb extracellular domain with …
# Assay: as above
row,He/Con_2b (IIb binding),Binder
1,39.1 % of control (control = 100),B1
2,91 % of control (control = 100),B2
3,91.9 % of control (control = 100),B3
4,45.1 % of control (control = 100),B4
5,40.4 % of control (control = 100),B5
6,30.7 % of control (control = 100),B6
7,45.4 % of control (control = 100),B7

# Molecular target: T2, FcγRIIb, extracellular domain with …
# Assay: SPR Biacore, captured antibody, FcgR analyte; GpH7-A5/GpH7-B3/GpL16-k0 = 100
row,He/Con_2b,Binder
1,41.7 % of HeCon Ab,B8
2,54.2 % of HeCon Ab,B9
3,63.7 % of HeCon Ab,B10
4,84.8 % of HeCon Ab,B11
5,41.3 % of HeCon Ab,B12
6,70.5 % of HeCon Ab,B13
7,52.4 % of HeCon Ab,B14
8,59.5 % of HeCon Ab,B15
9,77.9 % of HeCon Ab,B16
10,67.1 % of HeCon Ab,B17

# Molecular target: T3, FcγRIIa H (FcγRIIa type H, His at …)
# Assay: as above
row,He/Con_2aH,Binder
1,54.9 % of HeCon Ab,B8
2,67.3 % of HeCon Ab,B9
3,84.4 % of HeCon Ab,B10
4,108 % of HeCon Ab,B11
5,65.4 % of HeCon Ab,B12
6,87.6 % of HeCon Ab,B13
7,79.7 % of HeCon Ab,B14
8,75.5 % of HeCon Ab,B15
9,94.5 % of HeCon Ab,B16
10,87.3 % of HeCon Ab,B17

# Molecular target: T3, FcγRIIa H (FcγRIIa type H, His at …)
# Assay: SPR Biacore; He/Con_2aH divided by He/Con_2b (reference: FcgRIIb)
row,He_2aH/2b (IIaH/IIb),Binder
1,1.32,B8
2,1.24,B9
3,1.32,B10
4,1.27,B11
5,1.58,B12
6,1.24,B13
7,1.52,B14
8,1.27,B15
9,1.21,B16
10,1.3,B17
